In article doi:10.1101/2020.05.11.089458 (bioRxiv, 2020):

Target: the molecule itself
Assay: SEC

| Protein | stoichiometry N |
| --- | --- |
| TatB^22-171 (soluble membrane-extrinsic cytoplasmic domain of E. coli TatB) (domain or fragment) PQRLPVAVKTVAGWIRALRSLATTVQNELTQELKLQEFQDSLKKVEKASLTNLTPELKASMDELRQAAESMKRSYVANDPEKASDEAHTIHNPVVKDNEAAHEGVTPAAAQTQASSPEQKPETTPEPVVKPAADAEPKTAAPSPSSSDKP | 4 |
| YpTatB^22-220 (soluble cytoplasmic domain of Yersinia pseudotuberculosis TatB) (domain or fragment) PERLPVAVRTVSGWIRTLRSLAATVQNELAQELKLQELQDSLKKVEQAGLQNLTPELKASMDELKEAAEALKRSYHVDAGSEAPHTIHNPLVTEPEAIHDGVTPAEPATQVSALAQAPNILEAGTASVADSVVEAAPVTTVKSVVQGEVLVKSTPVQEVGLADVMDKPVTKQQIDTIDSHGTDLSSAGPSRIHQPGGDQ | 3 |
